To fix the notation:
B1: Endoglucanase C, P0C2S3 (parent)
chain: MVSFKAGINLGGWISQYQVFSKEHFDTFITEKDIETIAEAGFDHVRLPFDYPIIESDDNVGEYKEDGLSYIDRCLEWCKKYNLGLVLDMHHAPGYRFQDFKTSTLFEDPNQQKRFVDIWRFLAKRYINEREHIAFELLNEVVEPDSTRWNKLMLEYIKAIREIDSTMWLYIGGNNYNSPDELKNLADIDDDYIVYNFHFYNPFFFTHQKAHWSESAMAYNRTVKYPGQYEGIEEFVKNNPKYSFMMELNNLKLNKELLRKDLKPAIEFREKKKCKLYCGEFGVIAIADLESRIKWHEDYISLLEEYDIGGAVWNYKKMDFEIYNEDRKPVSQELVNILARRKT

The data set covers variants of B1. The conditions noted are these: Acetivibrio thermocellus, pH 7.2, structure 1CEC, whole UniProt chain shown; for Tm / change of melting temperature, mutant - wild type (higher = more stable): Thermal, DSC, Tris 20 mM, reversible: No.
The mark [1] stands for this setting: 25 °C, GdnHCl, CD, Tris 50 mM, reversible: yes.

Turning to N9D, the Tm (in general, the temperature at the midpoint of the melting transition) stood at 63.9 °C and the “change of melting temperature, mutant - wild type (higher = more stable)” value (shortened to “change of melting temperature, mutant”) was -6.5 °C.

Consider I293A, for which the Tm was determined as 67.6 °C and the “change of melting temperature, mutant” value was -2.8 °C.

Consider N220D T222A, for which the midpoint of thermal melting (Tm) worked out at 68.3 °C and the “change of melting temperature, mutant” value is -2.1 °C.

As to E333G, the Tm came to 69.4 °C and the “change of melting temperature, mutant” value is -1 °C.

On to A6C R340C, for which the Tm turned out to be 73.4 °C. Besides, under setting [1], the “ddG of mutation (higher = less stable)” value was -1.73 kcal/mol, the “denaturant midpoint (higher = more stable)” value stood at 2.61 M and the unfolding free energy was 8.03 kcal/mol.

These data come from FireProtDB (doi:10.1016/s0301-4622(02)00027-3).
